Among the data in article PMC8000399 are stoichiometry N values, retold here.

In the assay the target is adzuki bean (Vigna angularis) β-vignin protein (Vigna angularis (adzuki bean)). The assay can be described thus: SEC; gel molecular sieving on a Sephadex G-200 column (50 cm x 2.5 cm) under native condition, 0.58 mL/min, room temperature; calibrated with standard proteins; apparent molecular size compared with the subunits' Mr from SDS-PAGE. (In general: SEC sorts molecules by how far they enter the pores of the column.)

In the case of “adzuki bean (Vigna angularis) β-vignin protein (natural protein)”, the stoichiometry N (as a rule, a count of units in the complex or per binding partner) is 3.
